The target in assay [1] is T1, human MerTK (human, UniProt Q12866 26-499).
T1 construct: also called HuMER
T1 sequence: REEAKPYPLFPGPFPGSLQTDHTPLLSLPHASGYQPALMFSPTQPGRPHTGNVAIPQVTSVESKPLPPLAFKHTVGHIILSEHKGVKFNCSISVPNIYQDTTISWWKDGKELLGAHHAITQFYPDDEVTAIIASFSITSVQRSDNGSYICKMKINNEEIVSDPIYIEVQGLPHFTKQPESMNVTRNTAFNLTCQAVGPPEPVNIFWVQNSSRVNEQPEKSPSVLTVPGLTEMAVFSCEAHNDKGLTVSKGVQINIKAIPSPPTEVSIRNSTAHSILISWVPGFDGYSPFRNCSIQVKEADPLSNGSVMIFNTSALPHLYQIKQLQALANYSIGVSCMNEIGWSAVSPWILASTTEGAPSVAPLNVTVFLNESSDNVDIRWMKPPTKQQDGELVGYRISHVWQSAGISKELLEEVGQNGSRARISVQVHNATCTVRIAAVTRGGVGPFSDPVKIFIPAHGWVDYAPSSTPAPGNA
The experiment in a line: SPR BIAcore T200, Ab captured, 25C. As to the method: (§1) All binding affinity determinations were obtained using Surface Plasmon Resonance (SPR) measurements from a BIAcore™-T200 instrument. Briefly, each rabbit or humanized antibody was captured to achieve approximately 100 RU (Response Units). Then, 3-fold serial dilutions of MerTK from various species (0.4 nM to 100 nM) diluted in HBS-EP buffer (0.01M HEPES pH 7.4, 0.15M NaCl, 3 mM EDTA and 0.05% v/v surfactant P20) was injected into the BIAcore™-T200 instrument at 25° C. or 37° C. with a flow rate of 30 μl/min. Association rates (kₒₙ) and dissociation rates (koff) were calculated using a simple one-to-one Langmuir binding model (BIAcore T200 evaluation software version 2.0). The equilibrium dissociation constant (KD) was calculated as the ratio koff/kₒₙ.
On the technique in general: Surface plasmon resonance follows binding to a sensor surface in real time, without labels.

For assay [2], the target named is T2, cynomolgus monkey MerTK (cynomolgus monkey, UniProt A0A2K5V1H9 32-505).
T2 construct: Soluble analyte in SPR; also called Cyno MerTK
T2 sequence: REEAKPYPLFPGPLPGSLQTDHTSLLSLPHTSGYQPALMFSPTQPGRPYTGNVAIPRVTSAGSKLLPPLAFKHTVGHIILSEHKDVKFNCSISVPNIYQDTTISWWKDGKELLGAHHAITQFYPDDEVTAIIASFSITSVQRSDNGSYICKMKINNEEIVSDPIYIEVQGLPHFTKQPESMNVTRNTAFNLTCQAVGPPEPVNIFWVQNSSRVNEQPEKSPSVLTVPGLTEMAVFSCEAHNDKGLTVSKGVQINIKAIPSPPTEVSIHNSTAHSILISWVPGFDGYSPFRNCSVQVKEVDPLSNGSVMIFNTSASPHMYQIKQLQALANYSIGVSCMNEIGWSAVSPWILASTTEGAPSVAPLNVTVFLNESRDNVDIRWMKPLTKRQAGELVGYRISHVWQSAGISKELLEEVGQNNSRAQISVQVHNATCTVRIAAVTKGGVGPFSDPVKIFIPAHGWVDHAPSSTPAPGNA
The assay can be described thus: SPR BIAcore T200, Ab captured, 25C. As to the method: as §1

Assay [3] deals with T1, human MerTK. The assay can be described thus: SPR BIAcore T200, Ab captured, 37C. As to the method:
as §1

For assay [4], the target named is T2, cynomolgus monkey MerTK. The assay can be described thus: SPR BIAcore T200, Ab captured, 37C. How it is done: as §1
Assay [5] has as its target T3, HuMER (R26-A499) (human, UniProt Q12866 26-499).
T3 construct: Extracellular domain with both Ig-like and both fibronectin-like domains; also called human MerTK extracellular domain
T3 sequence: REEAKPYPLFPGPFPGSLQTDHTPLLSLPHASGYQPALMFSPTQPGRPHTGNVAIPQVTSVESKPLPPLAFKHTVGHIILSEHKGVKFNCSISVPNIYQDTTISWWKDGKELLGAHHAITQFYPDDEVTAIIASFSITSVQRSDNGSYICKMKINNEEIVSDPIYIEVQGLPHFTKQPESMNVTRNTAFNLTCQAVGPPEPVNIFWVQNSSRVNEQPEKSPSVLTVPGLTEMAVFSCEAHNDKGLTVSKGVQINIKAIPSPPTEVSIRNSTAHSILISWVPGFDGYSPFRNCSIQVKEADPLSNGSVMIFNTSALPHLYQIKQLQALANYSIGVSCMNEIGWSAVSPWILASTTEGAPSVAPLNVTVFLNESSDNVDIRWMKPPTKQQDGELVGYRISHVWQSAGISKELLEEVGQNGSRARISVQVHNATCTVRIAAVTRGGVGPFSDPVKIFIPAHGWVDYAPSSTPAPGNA
The assay can be described thus: SPR BIAcore T200, Ab captured, 25C. How it is done:
(§2) Binding affinity determinations were obtained using Surface Plasmon Resonance (SRP) measurements from a BIAcore™-T200 instrument. Briefly, each rabbit antibody was captured to achieve approximately 100 RU (Response Units). Then, 3-fold serial dilutions of the various MerTK domains (0.4 nM to 100 nM) diluted in HBS-EP buffer (0.01M HEPES pH 7.4, 0.15M NaCl, 3 mM EDTA and 0.05% v/v surfactant P20) was injected into the BIAcore™-T200 instrument at 25° C. or 37° C. with a flow rate of 30 μl/min. Association rates (kₒₙ) and dissociation rates (koff) were calculated using a simple one-to-one Langmuir binding model (BIAcore T200 evaluation software version 2.0). The equilibrium dissociation constant (KD) was calculated as the ratio koff/kₒₙ.
(§3) Antibody epitope determination was assessed by BIAcore analysis for rabbit antibodies binding against both the human and mouse MerTK extracellular domain (HuMER R26-A499 and MuMER E23-S496), Ig1&2 domain, Ig1-only domain, and Ig2-only domain (TABLE 18). Human MerTK and its domains are shown in light gray, while mouse MerTK and its domains are shown in dark gray.

Assay [6] addresses T4, HuMER.Ig1&2 (G76-P284) (human, UniProt Q12866 76-284).
T4 construct: also called human MerTK Ig-like 1&2 domains
T4 sequence: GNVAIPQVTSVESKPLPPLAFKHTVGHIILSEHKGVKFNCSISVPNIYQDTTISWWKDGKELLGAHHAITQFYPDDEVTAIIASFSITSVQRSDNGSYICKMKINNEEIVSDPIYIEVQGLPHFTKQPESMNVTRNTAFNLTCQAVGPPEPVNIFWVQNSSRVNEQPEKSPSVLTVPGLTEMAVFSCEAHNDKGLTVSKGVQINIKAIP
The assay can be described thus: SPR BIAcore T200, Ab captured, 25C. As to the method:
as §2, §3

Assay [7] has as its target T5, HuMER.Ig1 (G76-G195) (human, UniProt Q12866 76-195).
T5 construct: also called human MerTK Ig-like 1 domain
T5 sequence: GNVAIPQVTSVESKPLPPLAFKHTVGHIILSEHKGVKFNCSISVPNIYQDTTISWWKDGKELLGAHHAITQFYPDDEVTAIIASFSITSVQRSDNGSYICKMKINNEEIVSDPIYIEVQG
The assay can be described thus: SPR BIAcore T200, Ab captured, 25C. As to the method: as §2, §3

Assay [8] concerns the target T1, human MerTK. The experiment in a line: SPR BIAcore T200, Ab captured, 37C. This is another data set of the same source.
The target in assay [9] is T6, rat MerTK (rat, UniProt P57097 23-496, limits assumed).
T6 construct: Soluble analyte in SPR
T6 sequence (looked up): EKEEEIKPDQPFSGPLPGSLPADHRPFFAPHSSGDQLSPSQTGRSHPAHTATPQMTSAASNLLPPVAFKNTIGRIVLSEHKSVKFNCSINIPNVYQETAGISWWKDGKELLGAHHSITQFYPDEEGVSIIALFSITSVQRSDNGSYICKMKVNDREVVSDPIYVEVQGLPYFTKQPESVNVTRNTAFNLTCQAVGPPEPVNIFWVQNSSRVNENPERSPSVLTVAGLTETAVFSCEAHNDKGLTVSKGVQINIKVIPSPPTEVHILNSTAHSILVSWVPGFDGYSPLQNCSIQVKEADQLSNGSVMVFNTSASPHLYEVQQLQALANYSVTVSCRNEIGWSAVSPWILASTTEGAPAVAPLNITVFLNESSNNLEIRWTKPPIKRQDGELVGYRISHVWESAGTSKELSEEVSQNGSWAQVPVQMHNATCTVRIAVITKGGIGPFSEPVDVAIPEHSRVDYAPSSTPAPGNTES
The assay can be described thus: SPR BIAcore T200, Ab captured, 37C. As to the method: as §1

Assay [10] has as its target T7, mouse MerTK (mouse, UniProt Q60805 23-496).
T7 construct: also called MuMER
T7 sequence (looked up): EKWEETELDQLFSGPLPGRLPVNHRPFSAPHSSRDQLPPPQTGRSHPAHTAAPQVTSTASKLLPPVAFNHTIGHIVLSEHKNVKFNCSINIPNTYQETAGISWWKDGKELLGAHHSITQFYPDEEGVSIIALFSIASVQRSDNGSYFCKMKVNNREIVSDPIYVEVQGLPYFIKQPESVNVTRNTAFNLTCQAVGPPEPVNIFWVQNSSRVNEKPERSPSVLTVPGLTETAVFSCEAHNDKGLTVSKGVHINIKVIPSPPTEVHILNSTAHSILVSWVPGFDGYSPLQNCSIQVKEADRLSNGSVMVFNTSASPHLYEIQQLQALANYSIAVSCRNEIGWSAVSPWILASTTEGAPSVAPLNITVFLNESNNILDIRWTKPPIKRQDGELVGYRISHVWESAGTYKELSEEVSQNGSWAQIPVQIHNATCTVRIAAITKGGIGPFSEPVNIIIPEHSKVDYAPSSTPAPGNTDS
The experiment in a line: SPR BIAcore T200, Ab captured, 37C. How it is done: as §1

Assay [11] deals with T1, human MerTK. The experiment in a line: SPR BIAcore T200, Ab captured, 37C. As to the method: (§4) Each rabbit and humanized antibody was subjected to a binding assay to determine its affinity to MerTK derived from various species.
as §1
The source holds these as a separate data set.

Assay [12] concerns the target T2, cynomolgus monkey MerTK. The experiment in a line: SPR BIAcore T200, Ab captured, 37C. How it is done:
as §4, §1
The source holds these as a separate data set.

The target of assay [13] is T6, rat MerTK. The experiment in a line: SPR BIAcore T200, Ab captured, 37C. As to the method:
as §4, §1
The source holds these as a separate data set.

In assay [14] the target is T7, mouse MerTK. The assay can be described thus: SPR BIAcore T200, Ab captured, 37C. How it is done:
as §4, §1
The source holds these as a separate data set.

Where two headings read alike, the source gives them in different places.

B1: Rbt13B4 (antibody, V domains shown)
VH: QSVEESGGRLVTPGTPLTLTCTVSGFSLSSYAMGWVRQAPGKGLEWIGIINSYGNTYYANWAKGRFTISRTSTTVDLRMPSLTTEDTATYFCARDPGVSSNLWGPGTLVTVSS
VL: DVVMTQTPASVSEPVGGTVTIKCQASQNIYSGLAWYQQKPGQPPKLLIYGASKLASGVSSRFKGSGSGTEFTLTISDLECADAATYYCQATYYSSNSVAFGGGTEVVVK
notes: Recombinant rabbit monoclonal antibody, Expi293, protein A purified; also called Rb13B4
For B1, the dissociation constant (Kd) (in general, the free concentration of one partner at which half of the binding sites on the other are occupied at equilibrium, for simple one-to-one binding) worked out at 2.9 nM in assay [1]; 1.8 nM in assay [2]; 4.9 nM in assay [3]; 5.9 nM in assay [4]; 2.9 nM in assay [5]; 8.8 nM in assay [6]. In assay [7], this molecule yielded a dissociation constant (Kd) of 0.3 nM.

B2: h9E3.FN.v1 (antibody, V domains shown)
VH: EQQLVESGGGLIQPGGSLRLSCAVSGFSLSSNAMSWVRQAPGKGLEWIGIISSSGSTYSASWAKGRFTISKDSSKNTMYLQMNSLRAEDTAVYFCARVGFFVGYGAYDYGIIHRLDLWGQGTLVTVSS
VL: DAQLTQSPSTLSASVGDRVTITCQSSKSIYNNNWLSWYQQKPGKPPKLLIYDASDLASGVPSRFSGSGSGTEFTLTISSLQPDDFATYYCAGGYSGDSDYAFGGGTKVEIK
notes: also called h9E3.FN.V1 (Parent); 9E3.FN Humanized mAb V1
Take B2: the dissociation constant Kd in assay [8] is 12.2 nM; in [3] it was 10.6 nM; in assay [4] it was 4.5 nM; in assay [9], 3.7 nM; in assay [10], 1.5 nM; in [11] it was 11.2 nM. In addition, the Kd was determined as 4.8 nM in assay [12], 3.8 nM in assay [13] and 1.4 nM in assay [14].

The values are drawn from patent publication US20220135701A1 (Genentech, published 2022).
